Measurements published in patent US20130266516, “LAR Protein-Specific Ligand” (COMMISSARIAT A L'ENERGIE ATOMIQUE ET AUX ENERGIES, published 2013).

Experiments:
Conditions in all cases: label: radiolabel, biotin or Alexa Fluor 647/680
[1] = target: T1, LAR protein (PTPRF, receptor-type protein tyrosine phosphatase F), endogenous on human cell lines (Homo sapiens, UniProt P10586 SEQ:30-1907); assay: HEK293 whole cells, Scatchard; Cmax 264 pM
Description: (§1) The binding curves were obtained for each cell type. From the specific binding, and using the Scatchard representation, the Kd and the Cmax were calculated for each cell type. Knowing the Cmax and the number of cells during the binding, the inventors were able to deduce therefrom an approximate number of targets per cell.

[2] = target: T1, LAR protein (PTPRF, receptor-type …); assay: A-431 whole cells, Scatchard; Cmax 455 pM
Description: as §1

[3] = target: T1, LAR protein (PTPRF, receptor-type …); assay: HEK293-KDR whole cells, Scatchard; Cmax 119 pM
Description: as §1

[4] = target: T1, LAR protein (PTPRF, receptor-type …); assay: MCF-7 whole cells, Scatchard analysis of radioligand-type cell binding; Cmax 251 pM
Description: as §1

[5] = target: T1, LAR protein (PTPRF, receptor-type …); assay: MDA-MB-231 whole cells, Scatchard; Cmax 131 pM
Description: as §1

T1 sequence (P10586 30-1907): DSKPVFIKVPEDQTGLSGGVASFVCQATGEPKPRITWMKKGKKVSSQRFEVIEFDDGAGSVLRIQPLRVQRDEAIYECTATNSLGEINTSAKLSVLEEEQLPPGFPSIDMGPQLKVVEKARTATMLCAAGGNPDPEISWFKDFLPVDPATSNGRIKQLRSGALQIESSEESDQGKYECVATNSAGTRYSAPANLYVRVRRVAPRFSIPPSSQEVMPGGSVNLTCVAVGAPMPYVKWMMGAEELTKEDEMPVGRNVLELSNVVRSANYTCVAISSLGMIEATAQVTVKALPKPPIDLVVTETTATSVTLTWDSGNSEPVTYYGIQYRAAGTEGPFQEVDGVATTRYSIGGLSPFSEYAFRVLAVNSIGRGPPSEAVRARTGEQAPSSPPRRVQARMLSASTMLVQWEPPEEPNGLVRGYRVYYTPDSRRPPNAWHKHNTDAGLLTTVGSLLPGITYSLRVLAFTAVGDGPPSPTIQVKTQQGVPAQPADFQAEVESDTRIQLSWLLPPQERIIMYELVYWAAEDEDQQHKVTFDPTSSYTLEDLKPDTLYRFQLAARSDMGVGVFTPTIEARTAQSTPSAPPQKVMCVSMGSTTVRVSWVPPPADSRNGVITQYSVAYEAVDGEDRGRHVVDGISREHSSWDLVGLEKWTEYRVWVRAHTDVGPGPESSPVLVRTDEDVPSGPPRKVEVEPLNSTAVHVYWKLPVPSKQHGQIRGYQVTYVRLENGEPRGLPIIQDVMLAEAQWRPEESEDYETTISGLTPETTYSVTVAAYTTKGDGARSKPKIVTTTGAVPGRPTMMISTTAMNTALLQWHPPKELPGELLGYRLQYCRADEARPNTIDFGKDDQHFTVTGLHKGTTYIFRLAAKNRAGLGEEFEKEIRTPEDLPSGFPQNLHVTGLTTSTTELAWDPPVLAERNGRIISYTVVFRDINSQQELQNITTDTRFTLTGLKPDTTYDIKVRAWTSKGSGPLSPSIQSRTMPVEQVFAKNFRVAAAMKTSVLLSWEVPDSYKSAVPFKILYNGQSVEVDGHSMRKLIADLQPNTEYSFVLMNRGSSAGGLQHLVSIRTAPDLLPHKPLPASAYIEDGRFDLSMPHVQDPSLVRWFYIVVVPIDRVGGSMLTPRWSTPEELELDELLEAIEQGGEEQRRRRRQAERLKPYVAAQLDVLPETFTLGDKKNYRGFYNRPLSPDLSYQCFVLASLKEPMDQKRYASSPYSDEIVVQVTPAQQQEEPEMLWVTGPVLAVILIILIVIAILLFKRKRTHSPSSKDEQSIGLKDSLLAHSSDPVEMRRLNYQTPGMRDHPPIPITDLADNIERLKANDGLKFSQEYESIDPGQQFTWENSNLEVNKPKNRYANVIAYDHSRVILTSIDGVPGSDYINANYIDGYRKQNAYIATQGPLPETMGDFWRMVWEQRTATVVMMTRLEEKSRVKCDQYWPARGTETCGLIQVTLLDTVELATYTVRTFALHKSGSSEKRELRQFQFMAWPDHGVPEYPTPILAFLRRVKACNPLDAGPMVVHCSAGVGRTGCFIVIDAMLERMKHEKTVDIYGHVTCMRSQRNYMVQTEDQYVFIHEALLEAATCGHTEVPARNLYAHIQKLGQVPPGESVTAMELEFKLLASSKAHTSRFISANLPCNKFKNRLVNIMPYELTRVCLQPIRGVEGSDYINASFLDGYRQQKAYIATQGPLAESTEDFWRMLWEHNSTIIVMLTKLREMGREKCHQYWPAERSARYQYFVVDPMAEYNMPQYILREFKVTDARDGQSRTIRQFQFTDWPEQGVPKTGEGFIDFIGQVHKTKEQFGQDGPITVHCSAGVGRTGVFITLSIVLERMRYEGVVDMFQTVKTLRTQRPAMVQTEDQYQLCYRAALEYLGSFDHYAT

B1: V8 aptamer (ssRNA)
RNA: GGGAGAUGCUCUGUCAGACUACGACUGUCCCAGUAUGACGCGACUGCUUAGGUGGGAUGUUUCCCAUGCCUCGACUGGCUGGCAGGUUGAUGACAAG
modifications: 2'-F on all pyrimidines, 2'-OH purines
Q: What does the source list for B1?
A: Kd [1]: 3.8 nM; Kd [2]: 5.6 nM; Kd [3]: 5.3 nM; Kd [4]: 1.6 nM; Kd [5]: 3 nM
